Assay results from the RNAGym collection of RNA variant scans (doi:10.7554/elife.80360).

B1: Hammerhead Ribozyme (parent)
chain: ACCGGAUGUGCUUUCCGGUCUGAUGAGUCCGUGAGGACGAAACAG

Variants of: B1
Experiment: self-cleavage, relative activity (ratio to wild type); higher = more cleavage; co-transcriptional

Variant	self-cleavage
ACCGGAUGUGCUUUCCGGUCUGAUUAGUCCGUGAGGACGAAACAG [G25U]	0.331
ACCGGAUGUGCUUUCCGGUCUGAUUAGUCCGUGAGUACGAAACAG [G25U G36U]	0.334
ACCGGAUGUGCUUUCCGGUCUGAUUAGUCCGUGAGCACGAAACAG [G25U G36C]	0.312
ACCGGAUGUGCUUUCCGGUCUGAUUAGUCCGUGAGAACGAAACAG [G25U G36A]	0.365
ACCGGAUGUGCUUUCCGGUCUGAUCAGUCCGUGAGGACGAAACGG [G25C A44G]	0.556
ACCGGAUGUGCUUUCCGGUCUGAUCAGUCCGUGAGGACGAAACUG [G25C A44U]	0.263
ACCGGAUGUGCUUUCCGGUCUGAUCAGUCCGUGAGGACGAAACCG [G25C A44C]	0.29
ACCGGAUGUGCUUUCCGGUCUGAUUAGUCCGUGAGGACGAAACCG [G25U A44C]	0.42
ACCGGAUGUGCUUUCCGGUCUGAUUAGUCCGUGAGGACGAAACUG [G25U A44U]	0.373
ACCGGAUGUGCUUUCCGGUCUGAUUAGUCCGUGAGGACGAAACGG [G25U A44G]	0.669
ACCGGAUGUGCUUUCCGGUCUGAUUCGUCCGUGAGGACGAAACAG [G25U A26C]	0.288
ACCGGAUGUGCUUUCCGGUCUGAUUGGUCCGUGAGGACGAAACAG [G25U A26G]	0.298
ACCGGAUGUGCUUUCCGGUCUGAUUUGUCCGUGAGGACGAAACAG [G25U A26U]	0.343
ACCGGAUGUGCUUUCCGGUCUGAUUAGUCCGUGAGGCCGAAACAG [G25U A37C]	0.294
ACCGGAUGUGCUUUCCGGUCUGAUUAGUCCGUGAGGGCGAAACAG [G25U A37G]	0.287
ACCGGAUGUGCUUUCCGGUCUGAUUAGUCCGUGAGGUCGAAACAG [G25U A37U]	0.302
ACCGGAUGUGCUUUCCGGUCUGAUUAGUCCGUGAGGACGAUACAG [G25U A41U]	0.337
ACCGGAUGUGCUUUCCGGUCUGAUUAGUCCGUGAGGACGAGACAG [G25U A41G]	0.35
ACCGGAUGUGCUUUCCGGUCUGAUUAGUCCGUGAGGACGACACAG [G25U A41C]	0.316

Variant	self-cleavage
ACCGGAUGUGCUUUCCGGUCUGAUCAGUCCGUGAGGACGCAACAG [G25C A40C]	0.359
ACCGGAUGUGCUUUCCGGUCUGAUCAGUCCGUGAGGACGGAACAG [G25C A40G]	0.447
ACCGGAUGUGCUUUCCGGUCUGAUCAGUCCGUGAGGACGUAACAG [G25C A40U]	0.332
ACCGGAUGUGCUUUCCGGUCUGAUCAGUUCGUGAGGACGAAACAG [G25C C29U]	0.235
ACCGGAUGUGCUUUCCGGUCUGAUCAGUACGUGAGGACGAAACAG [G25C C29A]	0.243
ACCGGAUGUGCUUUCCGGUCUGAUCAGUGCGUGAGGACGAAACAG [G25C C29G]	0.334
ACCGGAUGUGCUUUCCGGUCUGAUUAGUCCGUGAGGACGAAACAC [G25U G45C]	0.398
ACCGGAUGUGCUUUCCGGUCUGAUUAGUCCGUGAGGACGAAACAU [G25U G45U]	0.323
ACCGGAUGUGCUUUCCGGUCUGAUUAGUCCGUGAGGACGAAACAA [G25U G45A]	0.306
ACCGGAUGUGCUUUCCGGUCUGAUCAGUCCGUGAGGUCGAAACAG [G25C A37U]	0.286
ACCGGAUGUGCUUUCCGGUCUGAUCAGUCCGUGAGGCCGAAACAG [G25C A37C]	0.285
ACCGGAUGUGCUUUCCGGUCUGAUCAGUCCGUGAGGGCGAAACAG [G25C A37G]	0.321
ACCGGAUGUGCUUUCCGGUCUGAUCAGUCCGUGAAGACGAAACAG [G25C G35A]	0.344
ACCGGAUGUGCUUUCCGGUCUGAUCAGUCCGUGACGACGAAACAG [G25C G35C]	0.355
ACCGGAUGUGCUUUCCGGUCUGAUCAGUCCGUGAUGACGAAACAG [G25C G35U]	0.357
ACCGGAUGUGCUUUCCGGUCUGAUUAGUCCGUGAGGACGAAGCAG [G25U A42G]	0.246
ACCGGAUGUGCUUUCCGGUCUGAUUAGUCCGUGAGGACGAACCAG [G25U A42C]	0.29
ACCGGAUGUGCUUUCCGGUCUGAUUAGUCCGUGAGGACGAAUCAG [G25U A42U]	0.349
ACCGGAUGUGCUUUCCGGUCUGAUCAGUCCGUGAGGACGAUACAG [G25C A41U]	0.319

Variant	self-cleavage
ACCGGAUGUGCUUUCCGGUCUGAUCAGUCCGUGAGGACGAGACAG [G25C A41G]	0.359
ACCGGAUGUGCUUUCCGGUCUGAUCAGUCCGUGAGGACGACACAG [G25C A41C]	0.359
ACCGGAUGUGCUUUCCGGUCUGAUUAGUCCGUGAGGACAAAACAG [G25U G39A]	0.318
ACCGGAUGUGCUUUCCGGUCUGAUUAGUCCGUGAGGACUAAACAG [G25U G39U]	0.295
ACCGGAUGUGCUUUCCGGUCUGAUUAGUCCGUGAGGACCAAACAG [G25U G39C]	0.302
ACCGGAUGUGCUUUCCGGUCUGAUUAGUCCUUGAGGACGAAACAG [G25U G31U]	0.419
ACCGGAUGUGCUUUCCGGUCUGAUUAGUCCCUGAGGACGAAACAG [G25U G31C]	0.298
ACCGGAUGUGCUUUCCGGUCUGAUUAGUCCAUGAGGACGAAACAG [G25U G31A]	0.338
ACCGGAUGUGCUUUCCGGUCUGAUCAGUCCGUGGGGACGAAACAG [G25C A34G]	0.332
ACCGGAUGUGCUUUCCGGUCUGAUCAGUCCGUGUGGACGAAACAG [G25C A34U]	0.327
ACCGGAUGUGCUUUCCGGUCUGAUUAGUCCGUGACGACGAAACAG [G25U G35C]	0.259
ACCGGAUGUGCUUUCCGGUCUGAUUAGUCCGUGAAGACGAAACAG [G25U G35A]	0.282
ACCGGAUGUGCUUUCCGGUCUGAUUAGUCCGUGAUGACGAAACAG [G25U G35U]	0.326
ACCGGAUGUGCUUUCCGGUCUGAUCAGUCCGUGAGGACGAAACAA [G25C G45A]	0.302
ACCGGAUGUGCUUUCCGGUCUGAUCAGUCCGUGAGGACGAAACAU [G25C G45U]	0.279
ACCGGAUGUGCUUUCCGGUCUGAUCAGUCCGUGAGGACGAAACAC [G25C G45C]	0.378
ACCGGAUGUGCUUUCCGGUCUGAUUACUCCGUGAGGACGAAACAG [G25U G27C]	0.285
ACCGGAUGUGCUUUCCGGUCUGAUUAAUCCGUGAGGACGAAACAG [G25U G27A]	0.34
ACCGGAUGUGCUUUCCGGUCUGAUUAUUCCGUGAGGACGAAACAG [G25U G27U]	0.31
